Experimental findings from patent publication US20170037124A1 are described below.

Common to all, as to experiment: SPR, blank anti-hFc surface, 500 nM peptide, 25C
On the technique in general: Surface plasmon resonance follows binding to a sensor surface in real time, without labels.

Experiment [1] addresses human ANGPTL8 peptide (hANGPTL8 peptide, SEQ ID NO: 337) (human).
The target in experiment [2] is peptide from the N-terminal coiled-coil region of human ANGPTL3 (hANGPTL3 peptide, SEQ ID NO: 338) (human).
Chain of peptide from the N-terminal coiled-coil region of human ANGPTL3 (hANGPTL3 peptide, SEQ ID NO: 338) (human) (peptide, as listed by the source): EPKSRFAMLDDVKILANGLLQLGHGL
Experiment [3] has as its target peptide from the N-terminal coiled-coil region of human ANGPTL4 (hANGPTL4 peptide, SEQ ID NO: 339) (human).

Chain of human ANGPTL8 peptide (hANGPTL8 peptide, SEQ ID NO: 337) (human) (peptide, as listed by the source): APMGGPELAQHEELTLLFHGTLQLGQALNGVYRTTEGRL
Chain of peptide from the N-terminal coiled-coil region of human ANGPTL4 (hANGPTL4 peptide, SEQ ID NO: 339) (human) (peptide, as listed by the source): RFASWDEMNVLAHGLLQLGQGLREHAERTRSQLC

“monoclonal mouse anti-human Fc antibody (GE, # BR-1008-39)” yielded a 500 nM hANGPTL8 peptide Bound (RU) in experiment [1] of 3 RU. The substance also gave a 500 nM hANGPTL3 peptide Bound (RU) in experiment [2] of 0 RU. Besides, the 500 nM hAngPTL4 peptide Bound (RU) in experiment [3] came to 0 RU.
